Measurements from PMC11994318, “In vitro characterization of the yeast DEAH/RHA RNA helicase Dhr1” (The Journal of Biological Chemistry, 2025).
Ends that are not written are not given here. * marks the point of attachment. 6FAM = O=C1OC2(c3ccc(O)cc3Oc3cc(O)ccc32)c2cc(C(=O)*)ccc21

T1: ΔN-Dhr1-WT (Δ1 to 375-Dhr1) (Saccharomyces cerevisiae, UniProt Q04217 376-1267)
T1 construct: Dhr1 (Ecm16), DEAH/RHA RNA helicase of Saccharomyces cerevisiae, residues 1-375 deleted; Cloned into pET21a(+) with a C-terminal Hisx6 tag; also called ΔN-WT; dhr1-Δ1–375 (ΔN); source: E. coli Codon+ BL21 (DE3) RIL (AJE854), purified (HisTrap FF, HiTrap Capto SP)
T1 sequence (looked up): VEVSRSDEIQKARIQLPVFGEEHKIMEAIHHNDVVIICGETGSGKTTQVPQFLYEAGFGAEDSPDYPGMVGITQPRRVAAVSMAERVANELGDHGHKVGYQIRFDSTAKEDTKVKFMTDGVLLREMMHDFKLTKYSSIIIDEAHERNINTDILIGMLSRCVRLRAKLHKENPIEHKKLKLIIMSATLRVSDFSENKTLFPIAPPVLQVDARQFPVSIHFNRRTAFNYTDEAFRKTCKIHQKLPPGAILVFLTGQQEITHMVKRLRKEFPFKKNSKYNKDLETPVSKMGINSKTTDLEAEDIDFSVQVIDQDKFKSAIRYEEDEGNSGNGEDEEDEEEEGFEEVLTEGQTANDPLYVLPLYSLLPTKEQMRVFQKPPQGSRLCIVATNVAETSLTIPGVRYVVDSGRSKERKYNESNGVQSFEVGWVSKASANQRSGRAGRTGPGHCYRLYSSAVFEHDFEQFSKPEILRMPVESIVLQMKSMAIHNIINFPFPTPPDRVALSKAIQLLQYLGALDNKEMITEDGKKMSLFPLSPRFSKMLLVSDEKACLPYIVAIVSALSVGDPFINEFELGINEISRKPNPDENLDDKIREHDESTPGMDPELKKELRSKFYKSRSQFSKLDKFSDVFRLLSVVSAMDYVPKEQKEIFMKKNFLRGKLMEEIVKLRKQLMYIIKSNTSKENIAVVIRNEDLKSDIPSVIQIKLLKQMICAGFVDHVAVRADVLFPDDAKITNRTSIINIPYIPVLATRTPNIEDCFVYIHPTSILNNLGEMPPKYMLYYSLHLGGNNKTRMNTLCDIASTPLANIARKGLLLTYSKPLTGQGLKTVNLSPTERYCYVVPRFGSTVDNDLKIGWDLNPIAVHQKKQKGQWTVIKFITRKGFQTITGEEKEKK

T2: ΔN-Dhr1-YCK (RecA2 surface mutant) (Saccharomyces cerevisiae, UniProt Q04217 376-1267, H593Y | R596C | E831K)
T2 construct: Dhr1 (Ecm16) of Saccharomyces cerevisiae, residues 1-375 deleted, with three mutations on the RecA2 surface; also called ΔN-Dhr1-RecA2; ΔN-Dhr1-RecA2-mutants; source: E. coli Codon+ BL21 (DE3) RIL (AJE854), purified (HisTrap FF, HiTrap Capto SP)
T2 sequence (looked up): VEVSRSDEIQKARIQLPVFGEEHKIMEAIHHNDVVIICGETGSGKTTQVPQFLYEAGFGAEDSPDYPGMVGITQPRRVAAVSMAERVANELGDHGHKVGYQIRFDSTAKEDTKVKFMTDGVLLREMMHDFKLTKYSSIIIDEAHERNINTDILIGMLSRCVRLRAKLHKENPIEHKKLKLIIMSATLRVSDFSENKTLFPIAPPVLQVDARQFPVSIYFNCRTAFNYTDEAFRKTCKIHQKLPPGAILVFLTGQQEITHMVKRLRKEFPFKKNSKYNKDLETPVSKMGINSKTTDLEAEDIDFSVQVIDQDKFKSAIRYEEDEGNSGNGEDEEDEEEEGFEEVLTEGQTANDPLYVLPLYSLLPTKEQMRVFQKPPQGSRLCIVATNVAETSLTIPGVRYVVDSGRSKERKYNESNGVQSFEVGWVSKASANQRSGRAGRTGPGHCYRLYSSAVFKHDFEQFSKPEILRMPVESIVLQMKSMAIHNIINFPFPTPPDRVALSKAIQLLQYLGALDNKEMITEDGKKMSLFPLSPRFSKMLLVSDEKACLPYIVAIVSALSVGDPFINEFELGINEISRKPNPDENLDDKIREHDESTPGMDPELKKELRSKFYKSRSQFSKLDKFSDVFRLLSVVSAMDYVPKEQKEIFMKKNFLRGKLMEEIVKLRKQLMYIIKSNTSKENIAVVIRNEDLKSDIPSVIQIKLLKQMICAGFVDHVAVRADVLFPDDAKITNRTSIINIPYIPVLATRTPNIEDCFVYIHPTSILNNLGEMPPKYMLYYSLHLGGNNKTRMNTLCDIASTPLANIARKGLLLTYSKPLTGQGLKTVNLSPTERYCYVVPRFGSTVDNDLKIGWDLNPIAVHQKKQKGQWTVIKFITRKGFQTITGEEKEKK

T3: ΔN-Dhr1-ΔSKTTD (Saccharomyces cerevisiae, UniProt Q04217 376-1267, ΔSKTTD (aa 666–670))
T3 construct: Dhr1 (Ecm16) of Saccharomyces cerevisiae, residues 1-375 deleted and the five residues SKTTD (aa 666-670) of loop 1 deleted; also called ΔN-ΔSKTTD; ΔNΔSKTTD; source: E. coli Codon+ BL21 (DE3) RIL (AJE854), purified (HisTrap FF, HiTrap Capto SP)
T3 sequence (looked up): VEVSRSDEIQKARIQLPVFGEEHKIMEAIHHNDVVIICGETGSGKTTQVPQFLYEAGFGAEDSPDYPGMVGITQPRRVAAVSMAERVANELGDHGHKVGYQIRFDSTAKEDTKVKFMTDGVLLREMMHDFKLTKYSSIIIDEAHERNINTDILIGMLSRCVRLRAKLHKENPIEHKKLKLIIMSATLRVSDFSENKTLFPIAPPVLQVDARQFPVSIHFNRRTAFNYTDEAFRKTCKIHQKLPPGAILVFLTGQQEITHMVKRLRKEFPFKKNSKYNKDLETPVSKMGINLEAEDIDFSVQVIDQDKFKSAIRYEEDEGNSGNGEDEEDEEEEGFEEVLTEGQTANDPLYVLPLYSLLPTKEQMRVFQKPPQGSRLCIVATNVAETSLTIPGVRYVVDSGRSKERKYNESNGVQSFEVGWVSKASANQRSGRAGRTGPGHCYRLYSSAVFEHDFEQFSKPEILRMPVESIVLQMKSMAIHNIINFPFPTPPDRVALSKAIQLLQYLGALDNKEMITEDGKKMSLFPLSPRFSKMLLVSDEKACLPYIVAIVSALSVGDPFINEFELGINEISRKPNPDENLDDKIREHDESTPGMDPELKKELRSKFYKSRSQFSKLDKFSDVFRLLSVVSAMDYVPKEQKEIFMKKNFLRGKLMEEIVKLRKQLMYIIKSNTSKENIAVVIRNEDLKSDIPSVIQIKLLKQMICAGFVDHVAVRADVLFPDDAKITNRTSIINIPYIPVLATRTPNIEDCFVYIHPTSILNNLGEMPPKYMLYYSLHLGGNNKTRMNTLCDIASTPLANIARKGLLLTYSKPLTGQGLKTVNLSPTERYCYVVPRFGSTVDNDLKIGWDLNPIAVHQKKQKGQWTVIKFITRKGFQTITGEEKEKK

T4: ΔN-Dhr1-ΔSKTTD (Saccharomyces cerevisiae, UniProt Q04217 376-665+671-1267, internal_change)
T4 sequence: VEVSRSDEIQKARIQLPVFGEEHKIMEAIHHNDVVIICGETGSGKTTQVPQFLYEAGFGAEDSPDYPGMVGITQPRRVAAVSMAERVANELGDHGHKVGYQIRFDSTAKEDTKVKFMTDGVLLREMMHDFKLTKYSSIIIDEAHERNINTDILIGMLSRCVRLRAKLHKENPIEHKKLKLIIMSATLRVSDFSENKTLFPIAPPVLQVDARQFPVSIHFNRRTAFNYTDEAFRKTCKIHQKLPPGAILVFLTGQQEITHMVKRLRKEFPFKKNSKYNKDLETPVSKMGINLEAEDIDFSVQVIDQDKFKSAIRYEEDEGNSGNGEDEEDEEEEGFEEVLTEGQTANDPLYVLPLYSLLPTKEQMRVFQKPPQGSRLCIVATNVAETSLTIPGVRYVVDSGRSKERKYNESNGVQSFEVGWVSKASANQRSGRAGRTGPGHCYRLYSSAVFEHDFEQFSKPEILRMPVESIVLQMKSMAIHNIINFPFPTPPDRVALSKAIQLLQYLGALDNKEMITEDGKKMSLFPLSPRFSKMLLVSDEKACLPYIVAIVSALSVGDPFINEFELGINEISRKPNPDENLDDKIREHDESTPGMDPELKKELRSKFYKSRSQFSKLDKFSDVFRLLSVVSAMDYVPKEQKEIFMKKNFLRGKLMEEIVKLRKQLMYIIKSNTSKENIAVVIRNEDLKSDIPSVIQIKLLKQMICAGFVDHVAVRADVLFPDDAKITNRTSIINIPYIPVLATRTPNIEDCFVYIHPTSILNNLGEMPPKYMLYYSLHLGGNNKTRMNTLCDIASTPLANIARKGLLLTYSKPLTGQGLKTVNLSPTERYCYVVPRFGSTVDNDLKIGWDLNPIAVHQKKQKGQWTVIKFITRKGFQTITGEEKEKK

T5: ΔN-Dhr1-WT (Saccharomyces cerevisiae, UniProt Q04217 376-1267)
T5 sequence: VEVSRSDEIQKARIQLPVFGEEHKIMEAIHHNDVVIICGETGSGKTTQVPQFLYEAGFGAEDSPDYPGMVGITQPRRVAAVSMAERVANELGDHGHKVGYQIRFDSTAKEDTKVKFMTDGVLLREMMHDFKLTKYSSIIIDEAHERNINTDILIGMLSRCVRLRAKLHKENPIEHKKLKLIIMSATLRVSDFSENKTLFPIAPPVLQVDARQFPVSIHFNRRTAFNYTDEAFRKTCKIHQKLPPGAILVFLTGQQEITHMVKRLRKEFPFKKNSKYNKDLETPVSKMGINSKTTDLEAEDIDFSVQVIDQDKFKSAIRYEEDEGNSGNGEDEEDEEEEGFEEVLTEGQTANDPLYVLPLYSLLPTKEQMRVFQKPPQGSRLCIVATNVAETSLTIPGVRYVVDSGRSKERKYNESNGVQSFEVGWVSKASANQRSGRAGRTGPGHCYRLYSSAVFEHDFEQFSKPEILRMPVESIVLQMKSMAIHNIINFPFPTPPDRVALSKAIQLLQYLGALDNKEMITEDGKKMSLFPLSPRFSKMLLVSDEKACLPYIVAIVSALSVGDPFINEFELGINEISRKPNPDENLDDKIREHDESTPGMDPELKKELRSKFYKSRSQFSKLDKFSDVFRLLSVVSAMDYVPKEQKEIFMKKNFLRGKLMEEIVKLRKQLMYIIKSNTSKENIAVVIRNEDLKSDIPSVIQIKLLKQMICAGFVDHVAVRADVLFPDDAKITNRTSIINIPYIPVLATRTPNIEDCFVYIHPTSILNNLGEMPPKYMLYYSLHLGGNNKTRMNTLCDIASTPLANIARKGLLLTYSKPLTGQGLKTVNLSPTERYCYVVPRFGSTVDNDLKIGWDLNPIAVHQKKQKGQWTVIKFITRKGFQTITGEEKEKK


How the values were obtained:
[1] = target: T1, ΔN-Dhr1-WT (Δ1 to 375-Dhr1); assay: fluorescence polarisation; 1.25 nM 6-FAM-labelled Utp14-A′ peptide titrated with Dhr1 variants; 25 °C; 40 mM Tris–HCl pH 8.0, 40 mM KCl, 150 mM NaCl, 2 mM NaOAc, 2 mM DTT, 10 mM MgCl2, 4% glycerol, 0.05% Tween 20; saturation not reached, no Kd calculated; settings: both partners purified
[2] = target: T2, ΔN-Dhr1-YCK (RecA2 surface mutant); assay: as above; settings: both partners purified
ΔN-Dhr1-ΔSKTTD [3] = target: T3, ΔN-Dhr1-ΔSKTTD; assay: as above; settings: both partners purified
ΔN-Dhr1-ΔSKTTD [4] = target: T4, ΔN-Dhr1-ΔSKTTD; assay: fluorescence polarization; no nucleotide; 10 mM Mg2+; 40 mM Tris-HCl pH 8.0, 40 mM KCl, 150 mM NaCl, 2 mM NaOAc, 2 mM DTT, 10 mM MgCl2, 4% glycerol, 0.05% Tween 20, 25 °C, 10 min; 1.25 nM RNA, 0.625 nM-20 µM protein; settings: protein: recombinant; tags: C-terminal His6 (pET21a); label: 5' 6-FAM; single strand
ΔN-Dhr1-WT = target: T5, ΔN-Dhr1-WT; assay: as above; settings: protein: recombinant; tags: C-terminal His6 (pET21a); label: 5' 6-FAM; single strand

| binding result [1] | binding result [2] | binding result (ΔN-Dhr1-ΔSKTTD [3]) | Binder | Kd (ΔN-Dhr1-ΔSKTTD [4]) | Kd (ΔN-Dhr1-WT) |
| --- | --- | --- | --- | --- | --- |
| binds | binds | binds | 6FAM-VFMFKQQDVIAEAFAGDDVVAEFQEEKKRVIDDED (also called Utp14 fragment; source: synthetic peptide (Genscript)) [Utp14-A′ (UTP14 746–780), 6-FAM-labelled peptide] | – | – |
| – | – | – | UUUUUUUUUUUUUUUUUUUU (ssRNA) [U20] | 0.06 ± 0.01 µM | 0.3 ± 0.02 µM |
